Source: article PMC6144786, “DNA binding with a minimal scaffold: structure–function analysis of Lig E DNA ligases” (Nucleic Acids Research, 2018)

What was measured:
Ame-Lig = target: T1, Ame-Lig (Alteromonas mediterranea, UniProt Z9I348I3L4); experiment: molecular beacon ligation assay; format: biochemical; conditions: 0.1 mM ATP, 300 nM nicked DNA substrate, 10 mM MgCl2, pH 8.0, 30 °C
T1 construct: predicted mature form, signal peptide omitted (cleavage between 21 and 22), codon-optimised synthetic gene in pDEST17; monomer in the asymmetric unit with nicked DNA
T1 sequence (Z9I348I3L4 2-297): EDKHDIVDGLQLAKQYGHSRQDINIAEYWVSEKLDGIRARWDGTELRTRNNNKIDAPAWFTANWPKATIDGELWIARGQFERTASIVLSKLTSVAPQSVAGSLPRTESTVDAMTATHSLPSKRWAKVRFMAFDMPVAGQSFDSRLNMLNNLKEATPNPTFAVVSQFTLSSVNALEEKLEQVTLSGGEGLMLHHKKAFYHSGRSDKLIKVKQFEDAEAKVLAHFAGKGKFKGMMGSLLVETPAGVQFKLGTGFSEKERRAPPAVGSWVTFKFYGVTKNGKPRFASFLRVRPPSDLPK

[1] = system: Psy-Lig WT (Lig E DNA ligase); experiment: MST; conditions: 5' phosphate on S24 at nick, MST: 50 mM Tris, 100 mM NaCl, 1 mM DTT, 5 mM EDTA, 1 mM ATP, 0.5% Tween, 40 nM DNA, incubated 4 C, read 25 C, EMSA: 50 mM Tris pH 8.0, 50 mM NaCl, 0.
Psy-Lig K25A = experiment: MST; conditions: 5' phosphate on S24 at nick, MST: 50 mM Tris, 100 mM NaCl, 1 mM DTT, 5 mM EDTA, 1 mM ATP, 0.5% Tween, 40 nM DNA, incubated 4 C, read 25 C, EMSA: 50 mM Tris pH 8.0, 50 mM NaCl, 0.
Psy-Lig S215A = experiment: MST; conditions: 5' phosphate on S24 at nick, MST: 50 mM Tris, 100 mM NaCl, 1 mM DTT, 5 mM EDTA, 1 mM ATP, 0.5% Tween, 40 nM DNA, incubated 4 C, read 25 C, EMSA: 50 mM Tris pH 8.0, 50 mM NaCl, 0.
Psy-Lig R69A = experiment: MST; conditions: 5' phosphate on S24 at nick, MST: 50 mM Tris, 100 mM NaCl, 1 mM DTT, 5 mM EDTA, 1 mM ATP, 0.5% Tween, 40 nM DNA, incubated 4 C, read 25 C, EMSA: 50 mM Tris pH 8.0, 50 mM NaCl, 0.
Psy-Lig R80A = experiment: MST; conditions: 5' phosphate on S24 at nick, MST: 50 mM Tris, 100 mM NaCl, 1 mM DTT, 5 mM EDTA, 1 mM ATP, 0.5% Tween, 40 nM DNA, incubated 4 C, read 25 C, EMSA: 50 mM Tris pH 8.0, 50 mM NaCl, 0.
Psy-Lig N144A = experiment: MST; conditions: 5' phosphate on S24 at nick, MST: 50 mM Tris, 100 mM NaCl, 1 mM DTT, 5 mM EDTA, 1 mM ATP, 0.5% Tween, 40 nM DNA, incubated 4 C, read 25 C, EMSA: 50 mM Tris pH 8.0, 50 mM NaCl, 0.
Psy-Lig K176A = experiment: MST; conditions: 5' phosphate on S24 at nick, MST: 50 mM Tris, 100 mM NaCl, 1 mM DTT, 5 mM EDTA, 1 mM ATP, 0.5% Tween, 40 nM DNA, incubated 4 C, read 25 C, EMSA: 50 mM Tris pH 8.0, 50 mM NaCl, 0.
Psy-Lig K193A = experiment: MST; conditions: 5' phosphate on S24 at nick, MST: 50 mM Tris, 100 mM NaCl, 1 mM DTT, 5 mM EDTA, 1 mM ATP, 0.5% Tween, 40 nM DNA, incubated 4 C, read 25 C, EMSA: 50 mM Tris pH 8.0, 50 mM NaCl, 0.
Psy-Lig K212A = experiment: MST; conditions: 5' phosphate on S24 at nick, MST: 50 mM Tris, 100 mM NaCl, 1 mM DTT, 5 mM EDTA, 1 mM ATP, 0.5% Tween, 40 nM DNA, incubated 4 C, read 25 C, EMSA: 50 mM Tris pH 8.0, 50 mM NaCl, 0.

Compound	molecular beacon ligation assay (Ame-Lig)	K half [1] [nM]	K half (Psy-Lig K25A) [µM]	K half (Psy-Lig S215A) [nM]	K half (Psy-Lig R69A) [µM]	K half (Psy-Lig R80A) [µM]	K half (Psy-Lig N144A) [nM]	K half (Psy-Lig K176A) [µM]	K half (Psy-Lig K193A) [nM]	K half (Psy-Lig K212A) [µM]
Nc1ncnc2c1ncn2[C@@H]1O[C@H](COP(=O)(O)OP(=O)(O)OP(=O)(O)O)[C@@H](O)[C@H]1O [ATP]	Ligase activity of Ame-Lig and Psy-Lig mutants were measured by molecular beacon (MB) assay	–	–	–	–	–	–	–	–	–
AGGCCATGGCTGATATCGGA / TCCGAATTCGAGCTCCGTCG / CGACGGAGCTCGAATTCGGATCCGATATCAGCCATGGCCT [nicked 40-mer (MST)]	–	980	3.3	1740	3.08	3.62	2450	5.17	2550	7.1
